PMC9163039

Biological target: mRuby2-Tau (human Tau full length) (human) (UniProt P10636)
Assay: FRET or BRET; FLIM-FRET (clover donor lifetime) in living SH-SY5Y cells after hyperosmotic stress (sucrose); only pixels belonging to BAG2 condensates fitted

Sequence of UniProt P10636 (P10636 2-758): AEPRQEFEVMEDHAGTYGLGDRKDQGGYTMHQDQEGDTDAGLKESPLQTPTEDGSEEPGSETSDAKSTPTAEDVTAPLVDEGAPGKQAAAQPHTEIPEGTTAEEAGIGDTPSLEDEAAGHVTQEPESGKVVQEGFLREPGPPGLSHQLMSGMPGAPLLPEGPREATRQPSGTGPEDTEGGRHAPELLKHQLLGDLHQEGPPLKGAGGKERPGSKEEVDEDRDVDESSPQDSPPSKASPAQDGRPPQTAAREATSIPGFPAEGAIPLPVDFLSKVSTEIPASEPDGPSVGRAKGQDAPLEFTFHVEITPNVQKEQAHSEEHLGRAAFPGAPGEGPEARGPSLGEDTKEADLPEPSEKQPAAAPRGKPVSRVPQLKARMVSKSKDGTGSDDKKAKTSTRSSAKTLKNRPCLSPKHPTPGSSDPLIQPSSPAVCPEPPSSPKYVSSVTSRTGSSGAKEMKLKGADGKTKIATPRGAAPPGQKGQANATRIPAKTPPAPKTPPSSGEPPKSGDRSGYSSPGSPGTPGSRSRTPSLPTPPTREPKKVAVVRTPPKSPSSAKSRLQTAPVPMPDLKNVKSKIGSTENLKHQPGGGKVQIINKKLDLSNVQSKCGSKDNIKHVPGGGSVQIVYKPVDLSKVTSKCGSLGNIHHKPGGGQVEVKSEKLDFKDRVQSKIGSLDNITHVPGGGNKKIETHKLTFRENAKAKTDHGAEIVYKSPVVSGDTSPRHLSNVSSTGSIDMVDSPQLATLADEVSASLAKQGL

Question: With “mClover2-BAG2 (Bcl2-associated athanogene 2, full length) (from UniProt O95816 1-211) (natural protein)” as the substance, how does the fluorescence lifetime of the donor (FLIM-FRET), pixels of BAG2 condensates after stress read?
Answer: 2.8 ns
